Some results are limits rather than exact numbers.

In this assay the target is Alexa488-labeled H3-H4 dimer (UniProt P84233). Briefly: fluorescence polarisation; 5 nM Alexa488-labeled H3-H4 dimer with increasing amounts of CAF-1; 25 mM TRIS pH 7.5, 300 mM NaCl, 5% glycerol, 1 mM EDTA, 0.01% NP-40, 0.01% CHAPS, 1 mM DTT. For orientation: In fluorescence polarisation assays a small probe gives low polarisation when free and higher when bound to something large.
“full-length (FL) yeast CAF-1 complex (from UniProt Q12495 1-606; Q04199 1-449; P13712 1-422)” returned a Kd of 0.3 nM.

“Cac3 (small subunit of yeast CAF-1) (from UniProt P13712 1-422) (natural protein)”: the Kd worked out at 77 nM.

Regarding “tCAF_∆3 (tCAF-1 sub-complex lacking the small subunit Cac3) (from UniProt Q12495 233-606; Q04199 1-449)”, the Kd is 1.3 nM.

“tCAF-1 (tCac1 233-606 with Cac2 and Cac3) (from UniProt Q12495 233-606; Q04199 1-449; P13712 1-422) (complex)” gave a Kd of 0.5 nM. Compared with the last substance, the Kd is about 2.6-fold lower.

Take “Cac2 (middle subunit of yeast CAF-1), C-terminal His-tag (from UniProt Q04199 1-449) (natural protein)”: the Kd is > 1000 nM.

Consider “tCAF_Nac (trimeric tCAF-1 with the acidic region of Cac1 replaced by a neutral Gly-Ser-Leu peptide) (from UniProt Q12495 233-606; Q04199 1-449; P13712 1-422) (complex)”, for which the Kd amounted to 8 nM.

“tCAF_∆ac (trimeric tCAF-1 with the acidic region of Cac1 deleted) (from UniProt Q12495 233-606; Q04199 1-449; P13712 1-422) (complex)” came in with a Kd of 60 nM.

The substance “tCAF_∆2 (tCAF-1 sub-complex lacking the middle subunit Cac2) (from UniProt Q12495 233-606; P13712 1-422)” gave a Kd of 25 nM.

The term Kd denotes a measure of binding affinity in units of concentration. High values mean lower affinity, low ones higher affinity.
